In paper PMC2737084 (Biochemistry, 2009):

Target: the molecule itself
Experiment: SEC

B1: Pseudomonas aeruginosa bacterioferritin B (natural protein)
chain: not shown
For B1, the “stoichiometry N” value was 24.
